For one sequence, Kd results are on record in the Immune Epitope Database (IEDB).

For assay [1], the target named is HLA-B*15:01. In words: IEDB peptide-MHC binding, purified MHC/direct/fluorescence; filed as Kd, often an IC50 or EC50 that approximates it; ≥ and ≤ were set here for values at or beyond the usual limits of such assays. The following applies: source organism: Burkholderia mallei ATCC 23344.
Assay [2] concerns the target HLA-A*24:03. Described as above. The following applies: source organism: Burkholderia mallei ATCC 23344.
Assay [3] concerns the target HLA-B*14:02. The description is as above. The following applies: source organism: Burkholderia mallei ATCC 23344.
The target of assay [4] is HLA-A*29:02. The assay is described as above. The following applies: source organism: Burkholderia mallei ATCC 23344.
Assay [5] concerns the target HLA-B*39:01. The description is as above. The following applies: source organism: Burkholderia mallei ATCC 23344.
Assay [6] addresses HLA-B*46:01. The description is as above. The following applies: source organism: Burkholderia mallei ATCC 23344.
Assay [7] has as its target HLA-B*18:01. The assay is described as above. The following applies: source organism: Burkholderia mallei ATCC 23344.
Assay [8] deals with HLA-A*68:02. Described as above. The following applies: source organism: Burkholderia mallei ATCC 23344.
The target in assay [9] is HLA-B*27:03. The description is as above. The following applies: source organism: Burkholderia mallei ATCC 23344.
The target in assay [10] is HLA-B*51:01. The description is as above. The following applies: source organism: Burkholderia mallei ATCC 23344.
Assay [11] deals with HLA-B*57:01. The description is as above. The following applies: source organism: Burkholderia mallei ATCC 23344.
Assay [12] concerns the target HLA-B*45:06. In words: IEDB peptide-MHC binding, purified MHC/competitive/fluorescence; filed as Kd, often an IC50 or EC50 that approximates it; ≥ and ≤ were set here for values at or beyond the usual limits of such assays. The following applies: source organism: Burkholderia mallei SAVP1.
The target in assay [13] is HLA-A*11:01. The assay is described as above. The following applies: source organism: Burkholderia mallei SAVP1.
For assay [14], the target named is HLA-A*01:01. The description is as above. The following applies: source organism: Burkholderia mallei SAVP1.
The target in assay [15] is HLA-A*30:02. Described as above. The following applies: source organism: Burkholderia mallei SAVP1.
Assay [16] has as its target HLA-B*58:01. The description is as above. The following applies: source organism: Burkholderia mallei SAVP1.
The target in assay [17] is HLA-B*53:01. The assay is described as above. The following applies: source organism: Burkholderia mallei SAVP1.
In assay [18] the target is HLA-B*08:01. Described as above. The following applies: source organism: Burkholderia mallei SAVP1.
Assay [19] has as its target HLA-B*15:42. Described as above. The following applies: source organism: Burkholderia mallei SAVP1.
Assay [20] has as its target HLA-B*83:01. The assay is described as above. The following applies: source organism: Burkholderia mallei SAVP1.
The target of assay [21] is HLA-B*40:01. Described as above. The following applies: source organism: Burkholderia mallei SAVP1.
Assay [22] deals with HLA-B*07:02. The description is as above. The following applies: source organism: Burkholderia mallei SAVP1.
Assay [23] concerns the target HLA-B*44:02. Described as above. The following applies: source organism: Burkholderia mallei SAVP1.

As for MVFGRFSFA, the Kd in assay [1] is at least 20 µM; in [2] it was at least 20 µM; in assay [3] it was 1.18 µM; in assay [4], 0.192 µM; in [5] it was at least 20 µM; in assay [6] it was at least 20 µM. Besides, the dissociation constant Kd in assay [7] was at least 20 µM; in assay [8], at most 0.001 µM; in assay [9] it was at least 20 µM; in [10] it was at least 20 µM; in assay [11] it was at least 20 µM; in assay [12], at least 5 µM. Moreover, the Kd in [13] was 1.5 µM; in assay [14], at least 5 µM; in [15], at least 20 µM; in assay [16], at least 5 µM; in assay [17], at least 5 µM; in [18] it was at least 5 µM. Moreover, the Kd in [19], in [20], in assay [21], in assay [22] and in assay [23] was at least 5 µM throughout.
